According to patent US7358040B2, “MRE 11: modulation of cellular proliferation” (Rigel Pharmaceuticals, Incorporated, priority 2001, dated 2008):
Changes are numbered by the printed parent chain. In names and notes the source's numbering stands.

Assays:
Format in all cases: cell-based
A549 tumor cells [1] = experiment: overexpression / GFP positivity proliferation assay in A549 tumor cells
From the text: (§1) As described below, the present inventors identified MRE11 in a yeast two hybrid assay, using PCNA as bait. Another molecule, NBS1, was identified in the two-hybrid assay as a PCNA-binding protein, as NBS1 binds the mammalian homolog of yeast RAD50, which also binds to MRE11 (see, e.g., Petrini, Am. J Hum. Genet. 64:1264-1269 (1999); Kim et al., J. Biol. Chem. 271:29255-29264 (1996); see also GenBank Accession number XP—034864 for a protein sequence of human RAD50 and Accession number XM—034864 for a nucleic acid sequence of human RAD50; see also Example 1)). NBS1 therefore bound to the RAD50/MRE11 complex, as well as to PCNA. As shown in FIGS. 8-15, inhibition of MRE11 or overexpression of an MRE11 mutant is antiproliferative in tumor cells and HeLa cells but not in normal cells (using, e.g., GFP positivity assays, cell tracker assays, and antisense assays).
(§2) In another embodiment, MRE11 protein is expressed in a cell, and functional, e.g., physical and chemical or phenotypic, changes are assayed to identify MRE11 and modulators of cellular proliferation, e.g., tumor cell proliferation. Cells expressing MRE11 proteins can also be used in binding assays and enzymatic assays. Any suitable functional effect can be measured, as described herein. […]

HeLa cells [2] = experiment: overexpression / GFP positivity proliferation assay in HeLa cells
From the text: as §1, §2

A549 tumor cells [3] = experiment: cell tracker assay in A549 tumor cells
From the text: as §1, §2

A549 tumor cells [4] = experiment: bleomycin chemosensitization study in A549 tumor cells
From the text: as §1

HeLa cells [5] = experiment: bleomycin chemosensitization study in HeLa cells
From the text: as §1

normal HMEC cells = experiment: bleomycin chemosensitization study in normal HMEC cells
From the text: as §1

normal cells [6] = experiment: overexpression proliferation assay in normal cells
From the text: as §1, §2

normal cells [7] = experiment: cell tracker assay in normal cells
From the text: as §1, §2

B1: GFP-fused MRE11 H129N mutant: GFP-fused dominant negative H129N mutant of MRE11 nuclease, overexpressed in cells for target validation (protein, UniProt P49959 2-708, looked up, variant H129N)
Double-strand break repair …: STADALDDENTFKILVATDIHLGFMEKDAVRGNDTFVTLDEILRLAQENEVDFILLGGDLFHENKPSRKTLHTCLELLRKYCMGDRPVQFEILSDQSVNFGFSKFPWVNYQDGNLNISIPVFSIHGNNDDPTGADALCALDILSCAGFVNHFGRSMSVEKIDISPVLLQKGSTKIALYGLGSIPDERLYRMFVNKKVTMLRPKEDENSWFNLFVIHQNRSKHGSTNFIPEQFLDDFIDLVIWGHEHECKIAPTKNEQQLFYISQPGSSVVTSLSPGEAVKKHVGLLRIKGRKMNMHKIPLHTVRQFFMEDIVLANHPDIFNPDNPKVTQAIQSFCLEKIEEMLENAERERLGNSHQPEKPLVRLRVDYSGGFEPFSVLRFSQKFVDRVANPKDIIHFFRHREQKEKTGEEINFGKLITKPSEGTTLRVEDLVKQYFQTAEKNVQLSLLTERGMGEAVQEFVDKEEKDAIEELVKYQLEKTQRFLKERHIDALEDKIDEEVRRFRETRQKNTNEEDDEVREAMTRARALRSQSEESASAFSADDLMSIDLAEQMANDSDDSISAATNKGRGRGRGRRGGRGQNSASRGGSQRGRADTGLETSTRSRNSKTAVSASRNMSIIDAFKSTRQQPSRNVTTKNYSEVIEVDESDVEEDIFPTTSKTDQRWSSTSSSKIMSQSQVSKGVDFESSEDDDDDPFMNTSSLRRNRR
modifications: GFP fusion
notes: GFP-fused dominant negative H129N mutant of MRE11 nuclease, overexpressed in cells for target validation
Question: Which results are given for B1?
Answer: antiproliferative activity on overexpression (A549 tumor cells [1]): antiproliferative; antiproliferative activity on overexpression (HeLa cells [2]): antiproliferative; antiproliferative activity, cell tracker assay (A549 tumor cells [3]): antiproliferative

B2: GFP-MRE11 H217Y mutant: GFP-fused MRE11 H217Y mutant overexpressed in cells (protein, UniProt P49959 2-708, looked up, variant H217Y)
Double-strand break repair …: B1 Double-strand break repair … with N128H, H216Y
modifications: GFP fusion
notes: GFP-fused MRE11 H217Y mutant overexpressed in cells
Question: How did the “sensitivity to bleomycin treatment on overexpression” value (“sensitivity to bleomycin treatment” for short) (A549 tumor cells [4]; A549 tumor cells) turn out when B2 was run?
Answer: Its value is “enhances sensitivity”.

Question: What about the “sensitivity to bleomycin treatment” value (HeLa cells [5]) of the same molecule?
Answer: Its value is “enhances sensitivity”.

Question: And the “sensitivity to bleomycin treatment” value (normal HMEC cells)?
Answer: Its value is “does not enhance sensitivity”.

B3: MRE11 H129N mutant: MRE11 H129N mutant expressed using IRES GFP (not fused) (protein, UniProt P49959 2-708, looked up, variant H129N)
Double-strand break repair …: B1 Double-strand break repair …
Question: B3 was tested. Which “antiproliferative activity, cell tracker assay” value (A549 tumor cells [3]) did it give?
Answer: The value was “antiproliferative”.

B4: MRE11 wild type: wild-type human MRE11 protein (SEQ ID NO:2) overexpressed in cells (protein, listed as Homo sapiens)
chain: MSTADALDDENTFKILVATDIHLGFMEKDAVRGNDTFVTLDEILRLAQENEVDFILLGGDLFHENKPSRKTLHTCLELLRKYCMGDRPVQFEILSDQSVNFGFSKFPWVNYQDGNLNISIPVFSIHGNHDDPTGADALCALDILSCAGFVNHFGRSMSVEKIDISPVLLQKGSTKIALYGLGSIPDERLYRMFVNKKVTMLRPKEDENSWFNLFVIHQNRSKHGSTNFIPEQFLDDFIDLVIWGHEHECKIAPTKNEQQLFYISQPGSSVVTSLSPGEAVKKHVGLLRIKGRKMNMHKIPLHTVRQFFMEDIVLANHPDIFNPDNPKVTQAIQSFCLEKIEEMLENAERERLGNSHQPEKPLVRLRVDYSGGFEPFSVLRFSQKFVDRVANPKDIIHFFRHREQKEKTGEEINFGKLITKPSEGTTLRVEDLVKQYFQTAEKNVQLSLLTERGMGEAVQEFVDKEEKDAIEELVKYQLEKTQRFLKERHIDALEDKIDEEVRRFRETRQKNTNEEDDEVREAMTRARALRSQSEESASAFSADDLMSIDLAEQMANDSDDSISAATNKGRGRGRGRRGGRGQNSASRGGSQRGRADTGLETSTRSRNSKTAVSASRNMSIIDAFKSTRQQPSRNVTTKNYSEVIEVDESDVEEDIFPTTSKTDQRWSSTSSSKIMSQSQVSKGVDFESSEDDDDDPFMNTSSLRRNRR
modifications: human MRE11 meiotic recombination 11 homolog A
Question: For B4, which “antiproliferative activity on overexpression” value (normal cells [6]) is on record?
Answer: Its value is “not antiproliferative”.

Question: And the “antiproliferative activity, cell tracker assay” value (normal cells [7])?
Answer: The value was “no antiproliferative activity”.

Question: And the “selective sensitization after bleomycin treatment” value (A549 tumor cells [4]; tumor cells expressing the protein, 48 hours after bleomycin treatment)?
Answer: Its value is “no selective sensitization”.
